Measured values from PMC11100828.

Target: human Nup153^CTD (C-terminal domain, aa 896-1485), MBP and SNAP-tag fusion protein (human)
Assay: negative-stain TEM, occupancy of NuPODs by capsids

Substance: HBV capsids assembled in vitro from wild type HBV core protein (HBc) (from UniProt P03146 1-183) (complex)
- percent of NuPODs occupied by at least one capsid: 90%
